{"source": "patent US20250297216A1", "about": "“METHOD FOR PRODUCING MILK LIKE PRODUCTS” (SOCIETE DES PRODUITS NESTLE S.A., priority 2021, published 2025)", "molecules": {"B1": {"name": "BMP4: bone morphogenetic protein 4, growth factor added to the culture medium (protein, UniProt P12644 293-408, looked up)", "Bone morphogenetic protein 4": "SPKHHSQRARKKNKNCRRHSLYVDFSDVGWNDWIVAPPGYQAFYCHGDCPFPLADHLNSTNHAIVQTLVNSVNSSIPKACCVPTELSAISMLYLDEYDKVVLKNYQEMVVEGCGCR"}}, "test_system": "iPSCs derived mammary gland organoids", "test": "Flow cytometry quantification of mammary gland progenitor markers in 3D iPSC differentiation (42-day and shortened 31-day protocols)", "type": "cell-based, human", "conditions": "20 ng/ml BMP4, 1 μM RA, single or combination, 42 days and 31 days protocols, compared to control condition", "text": "Scheme summarizing different procedures for the generation of mammary gland progenitors in 42 days (a), using bone morphogenetic protein 4 (BMP4) (b), retinoic acid (RA) (c), combinations of BMP4 and RA (d) and their combination in shortened time-course (31 days) (e). The red boxes indicate the period of addition of BMP4 and/or RA."}
{"molecule": "B1", "values": [{"measurement": "expression of mammary gland progenitor markers (EpCAM, CD49f, MUC1, GATA3)", "result": "can induce the expression of mammary gland progenitor markers"}]}
